In the assay the target is T1, RanBP1 protein (full-length, recombinant) (UniProt P43487 1-201).
T1 construct: pMAL-c5x vector; that this removed MBP is inferred; source: E. coli BL21 (DE3), purified (MBPTrap HP, thrombin digestion, Superdex 75); not shown: MBP, N-terminal, cleaved
Description: SPR; ProteOn XPR36, One-shot Kinetics; concentration series of CD147^ICD injected over the immobilized ligand in TBS-T, 50 μL/min for 3 min, dissociation 12 min; constants by ProteOn Manager Software. Particulars: both partners purified.

T1 sequence (P43487 whole entry): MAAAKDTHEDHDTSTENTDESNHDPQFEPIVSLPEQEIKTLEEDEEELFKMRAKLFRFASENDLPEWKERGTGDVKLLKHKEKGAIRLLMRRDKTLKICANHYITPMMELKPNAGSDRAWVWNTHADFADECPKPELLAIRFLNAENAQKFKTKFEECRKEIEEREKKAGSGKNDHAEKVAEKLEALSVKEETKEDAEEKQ

B1: His6-tagged CD147^ICD (intracellular domain of CD147, residues 231-269) (domain or fragment, UniProt P35613-2 231-269, looked up)
chain: KRRKPEDVLDDDDAGSAPLKSSGQHQNDKGKNVRQRNSS
notes: CD147 (basigin), intracellular domain, residues 231-269; One preparation is described (pET21a, 'SUMO-His tag at the C-terminus', SUMO removed by Ulp1); The pull-down names the bait as His6-tagged; source: E. coli BL21 (DE3), purified (HisTrap HP, Ulp1 digestion, Superdex 75); not shown: SUMO, C-terminal, cleaved; His6, C-terminal, kept
In the case of B1, the Kd – broadly, the concentration at which binding is half-saturated – came out at 2250 nM.
